B1: TBX6 (parent)
chain: AFLELPHGSGGSGYPAAPPAVPFA

Variants of: B1
Experiment: protein stability index of a GFP-peptide fusion (GPS, HEK-293T) (PSI 1-6); higher = more stable
Conditions: c terminus: a fixed tail appended
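Note: lentivirally expressed fusions sorted by FACS into six bins by GFP to DsRed ratio, PSI derived from sequencing read proportions per bin multiplied by bin number.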

Variant | protein stability index
AFTELPHGSGGSGYPAAPPAVPFA | 3.23
AFYELPHGSGGSGYPAAPPAVPFA | 2.08
AFPELPHGSGGSGYPAAPPAVPFA | 4.08
AFGELPHGSGGSGYPAAPPAVPFA | 3.43
AFFELPHGSGGSGYPAAPPAVPFA | 2.68
AFHELPHGSGGSGYPAAPPAVPFA | 3.19
AFMELPHGSGGSGYPAAPPAVPFA | 2.41
AFWELPHGSGGSGYPAAPPAVPFA | 3.01
AFKELPHGSGGSGYPAAPPAVPFA | 3.45
AFNELPHGSGGSGYPAAPPAVPFA | 3.57
AFSELPHGSGGSGYPAAPPAVPFA | 2.87
AFCELPHGSGGSGYPAAPPAVPFA | 2.7
AFVELPHGSGGSGYPAAPPAVPFA | 2.93
AFRELPHGSGGSGYPAAPPAVPFA | 3.47
AFLELPEGSGGSGYPAAPPAVPFA | 2.83
AFLELPDGSGGSGYPAAPPAVPFA | 2.9
AFLELPGGSGGSGYPAAPPAVPFA | 2.74
AFLELPCGSGGSGYPAAPPAVPFA | 2.12
AFLELPFGSGGSGYPAAPPAVPFA | 1.85
AFLELPAGSGGSGYPAAPPAVPFA | 2.29
AVLELPHGSGGSGYPAAPPAVPFA | 3.2
AKLELPHGSGGSGYPAAPPAVPFA | 3.76
ALLELPHGSGGSGYPAAPPAVPFA | 3.08
AALELPHGSGGSGYPAAPPAVPFA | 3.45

Variant | protein stability index
AGLELPHGSGGSGYPAAPPAVPFA | 3.33
AELELPHGSGGSGYPAAPPAVPFA | 4.25
AQLELPHGSGGSGYPAAPPAVPFA | 3.65
APLELPHGSGGSGYPAAPPAVPFA | 4.04
AWLELPHGSGGSGYPAAPPAVPFA | 2.11
ANLELPHGSGGSGYPAAPPAVPFA | 4.05
ADLELPHGSGGSGYPAAPPAVPFA | 3.93
AILELPHGSGGSGYPAAPPAVPFA | 2.94
ARLELPHGSGGSGYPAAPPAVPFA | 3.22
ASLELPHGSGGSGYPAAPPAVPFA | 3.63
AHLELPHGSGGSGYPAAPPAVPFA | 3.88
AMLELPHGSGGSGYPAAPPAVPFA | 2.83
AYLELPHGSGGSGYPAAPPAVPFA | 2.82
ATLELPHGSGGSGYPAAPPAVPFA | 3.49
ACLELPHGSGGSGYPAAPPAVPFA | 3.58
AFLTLPHGSGGSGYPAAPPAVPFA | 2.03
AFLNLPHGSGGSGYPAAPPAVPFA | 2.09
AFLILPHGSGGSGYPAAPPAVPFA | 3.55
AFLDLPHGSGGSGYPAAPPAVPFA | 2.42
AFLSLPHGSGGSGYPAAPPAVPFA | 2.19
AFLPLPHGSGGSGYPAAPPAVPFA | 3.3
AFLCLPHGSGGSGYPAAPPAVPFA | 2.17
AFLALPHGSGGSGYPAAPPAVPFA | 2.24
AFLKLPHGSGGSGYPAAPPAVPFA | 1.68

Variant | protein stability index
AFLLLPHGSGGSGYPAAPPAVPFA | 2.21
AFLYLPHGSGGSGYPAAPPAVPFA | 2.2
AFLVLPHGSGGSGYPAAPPAVPFA | 1.9
AFLMLPHGSGGSGYPAAPPAVPFA | 1.56
AFLRLPHGSGGSGYPAAPPAVPFA | 1.76
AFLQLPHGSGGSGYPAAPPAVPFA | 1.93
AFLFLPHGSGGSGYPAAPPAVPFA | 1.4
AFLGLPHGSGGSGYPAAPPAVPFA | 2.13
AFLHLPHGSGGSGYPAAPPAVPFA | 2.12
AFLELRHGSGGSGYPAAPPAVPFA | 1.53
AFLELAHGSGGSGYPAAPPAVPFA | 1.64
AFLELKHGSGGSGYPAAPPAVPFA | 2.37
AFLELNHGSGGSGYPAAPPAVPFA | 2.14
AFLELGHGSGGSGYPAAPPAVPFA | 1.62
AFLELWHGSGGSGYPAAPPAVPFA | 2.9
AFLELDHGSGGSGYPAAPPAVPFA | 2.31
AFLELIHGSGGSGYPAAPPAVPFA | 2.85
AFLELFHGSGGSGYPAAPPAVPFA | 2.09
AFLELQHGSGGSGYPAAPPAVPFA | 2
AFLELTHGSGGSGYPAAPPAVPFA | 2.21
AFLELSHGSGGSGYPAAPPAVPFA | 2.47
AFLELYHGSGGSGYPAAPPAVPFA | 2.36
AFLELEHGSGGSGYPAAPPAVPFA | 2.62
AFLELCHGSGGSGYPAAPPAVPFA | 1.34

Variant | protein stability index
AFLELHHGSGGSGYPAAPPAVPFA | 1.95
AFLELMHGSGGSGYPAAPPAVPFA | 2.29
AFLELLHGSGGSGYPAAPPAVPFA | 2.4
QFLELPHGSGGSGYPAAPPAVPFA | 2.77
DFLELPHGSGGSGYPAAPPAVPFA | 2.83
EFLELPHGSGGSGYPAAPPAVPFA | 3.11
YFLELPHGSGGSGYPAAPPAVPFA | 2.21
MFLELPHGSGGSGYPAAPPAVPFA | 1.61
CFLELPHGSGGSGYPAAPPAVPFA | 1.41
GFLELPHGSGGSGYPAAPPAVPFA | 2.84
FFLELPHGSGGSGYPAAPPAVPFA | 1.89
HFLELPHGSGGSGYPAAPPAVPFA | 3.13
LFLELPHGSGGSGYPAAPPAVPFA | 2.07
RFLELPHGSGGSGYPAAPPAVPFA | 2.58
TFLELPHGSGGSGYPAAPPAVPFA | 2.71
SFLELPHGSGGSGYPAAPPAVPFA | 2.08
PFLELPHGSGGSGYPAAPPAVPFA | 2.94
IFLELPHGSGGSGYPAAPPAVPFA | 2.67
KFLELPHGSGGSGYPAAPPAVPFA | 3.26
NFLELPHGSGGSGYPAAPPAVPFA | 2.83
WFLELPHGSGGSGYPAAPPAVPFA | 1.89
VFLELPHGSGGSGYPAAPPAVPFA | 1.78

— the supplement of paper PMC10567573
